Measured values reported in article PMC3159919 (Structure (London, England : 1993), 2011).
Numbering of substitutions follows the chain as printed. In names and notes the source's numbering stands.

B1: wild type CCL5 (RANTES) (natural protein, UniProt P13501 24-91, looked up)
chain: SPYSSDTTPCCFAYIARPLPRAHIKEYFYTSGKCSNPAVVFVTRKNRQVCANPEKKWVREYINSLEMS
B2: CCL5 E66S mutant (natural protein, UniProt P13501 24-91, looked up)
chain: B1 chain with E66S

Columns and labels:
[1] = target: the molecule itself; assay: pulse gradient diffusion NMR + NMR spin relaxation
[2] = target: the molecule itself; assay: NMR residual dipolar couplings

Protein | stoichiometry N [1] | binding result [2]
B1 | 4 | –
B2 | – | binds
